The results in this text go back to publication PMC1361355 (2006).

The test addresses T1, NiV-G-Fc, a fusion construct between the ectodomain of NiV-G and the Fc region of human IgG1 (Nipah virus, UniProt Q9IH62 71-602).
T1 chain: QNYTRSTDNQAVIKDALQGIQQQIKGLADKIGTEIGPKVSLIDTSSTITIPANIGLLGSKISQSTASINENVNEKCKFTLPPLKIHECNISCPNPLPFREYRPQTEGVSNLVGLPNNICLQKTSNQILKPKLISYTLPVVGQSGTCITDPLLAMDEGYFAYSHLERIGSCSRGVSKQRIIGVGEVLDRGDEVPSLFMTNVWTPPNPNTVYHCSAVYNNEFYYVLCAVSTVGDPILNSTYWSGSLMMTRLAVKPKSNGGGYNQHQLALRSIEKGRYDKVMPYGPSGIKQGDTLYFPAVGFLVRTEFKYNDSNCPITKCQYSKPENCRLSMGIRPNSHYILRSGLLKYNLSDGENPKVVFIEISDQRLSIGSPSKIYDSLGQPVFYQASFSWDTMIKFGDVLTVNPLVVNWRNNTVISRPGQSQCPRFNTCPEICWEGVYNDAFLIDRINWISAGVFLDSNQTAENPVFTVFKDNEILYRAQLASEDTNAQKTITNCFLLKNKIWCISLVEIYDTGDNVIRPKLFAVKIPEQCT
Nature of the test: SPR. In general terms: In SPR one partner is held on a chip, and binding of the other changes the refractive index at the surface.

B1: ephrinB3-Fc (soluble Fc-fusion ephrin protein, purchased) (Fc fusion)
chain: LSLEPVYWNSANKRFQAEGGYVLYPQIGDRLDLLCPRARPPGPHSSPNYEFYKLYLVGGAQGRRCEAPPAPNLLLTCDRPDLDLRFTIKFQEYSPNLWGHEFRSHHDYYIIATSDGTREGLESLQGGVCLTRGMKVLLRVGQSPRGGAVPRKPVSEMPMERDRGAAHSLEPGKENLPGDPTSNATSRGAEGPLPPPSMP
By Kd is commonly meant the equilibrium constant for the complex coming apart. Low readings indicate a tighter complex, high ones a looser complex. In the case of B1, the Kd was 2.83 nM. This counts as single-digit nanomolar.

B2: ephrinB2-Fc (soluble Fc-fusion ephrin protein, purchased) (Fc fusion)
chain: RSIVLEPIYWNSSNSKFLPGQGLVLYPQIGDKLDIICPKVDSKTVGQYEYYKVYMVDKDQADRCTIKKENTPLLNCARPDQDVKFTIKFQEFSPNLWGLEFQKNKDYYIISTSNGSLEGLDNQEGGVCQTRAMKILMKVGQDASSAGSARNHGPTRRPELEAGTNGRSSTTSPFVKPNPGSSTDGNSAGHSGNNLLGSEVA
As to B2, the Kd is 0.11 nM.
